Legend:
rpia_human RPIA = rpia_human RPIA (UniProt P49247)
dpyl2_human DPYSL2 = dpyl2_human DPYSL2 (UniProt Q16555)
reep6_human REEP6 = reep6_human REEP6 (UniProt Q96HR9)
ca094_human C1orf94 = target: T1, ca094_human C1orf94 (UniProt Q6P1W5)
T1 sequence: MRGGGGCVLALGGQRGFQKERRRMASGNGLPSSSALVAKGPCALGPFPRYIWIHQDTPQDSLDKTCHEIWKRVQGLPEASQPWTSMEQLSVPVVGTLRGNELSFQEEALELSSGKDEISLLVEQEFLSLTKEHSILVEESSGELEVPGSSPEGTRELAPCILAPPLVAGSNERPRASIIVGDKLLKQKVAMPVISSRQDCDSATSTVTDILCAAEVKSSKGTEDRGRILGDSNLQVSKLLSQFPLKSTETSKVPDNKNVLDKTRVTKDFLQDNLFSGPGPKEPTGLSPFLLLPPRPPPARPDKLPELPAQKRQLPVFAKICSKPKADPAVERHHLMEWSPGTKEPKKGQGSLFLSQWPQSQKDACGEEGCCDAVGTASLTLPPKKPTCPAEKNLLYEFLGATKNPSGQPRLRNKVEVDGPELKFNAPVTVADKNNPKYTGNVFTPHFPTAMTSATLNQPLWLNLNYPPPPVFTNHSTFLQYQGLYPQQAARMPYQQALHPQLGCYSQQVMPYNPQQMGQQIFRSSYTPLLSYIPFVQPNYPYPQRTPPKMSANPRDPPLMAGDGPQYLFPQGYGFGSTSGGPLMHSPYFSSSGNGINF

ei2ba_human EIF2B1 = target: T2, ei2ba_human EIF2B1 (UniProt Q14232)
T2 sequence: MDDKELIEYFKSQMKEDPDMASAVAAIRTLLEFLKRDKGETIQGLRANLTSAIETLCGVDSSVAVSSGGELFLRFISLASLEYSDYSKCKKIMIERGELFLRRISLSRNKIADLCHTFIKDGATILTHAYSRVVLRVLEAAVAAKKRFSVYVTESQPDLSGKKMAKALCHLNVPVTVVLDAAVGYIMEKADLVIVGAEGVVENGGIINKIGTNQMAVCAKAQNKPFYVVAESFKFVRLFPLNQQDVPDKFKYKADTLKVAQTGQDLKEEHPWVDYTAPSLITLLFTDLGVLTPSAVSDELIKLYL

dcor_human ODC1 = target: T3, dcor_human ODC1 (UniProt P11926)
T3 sequence: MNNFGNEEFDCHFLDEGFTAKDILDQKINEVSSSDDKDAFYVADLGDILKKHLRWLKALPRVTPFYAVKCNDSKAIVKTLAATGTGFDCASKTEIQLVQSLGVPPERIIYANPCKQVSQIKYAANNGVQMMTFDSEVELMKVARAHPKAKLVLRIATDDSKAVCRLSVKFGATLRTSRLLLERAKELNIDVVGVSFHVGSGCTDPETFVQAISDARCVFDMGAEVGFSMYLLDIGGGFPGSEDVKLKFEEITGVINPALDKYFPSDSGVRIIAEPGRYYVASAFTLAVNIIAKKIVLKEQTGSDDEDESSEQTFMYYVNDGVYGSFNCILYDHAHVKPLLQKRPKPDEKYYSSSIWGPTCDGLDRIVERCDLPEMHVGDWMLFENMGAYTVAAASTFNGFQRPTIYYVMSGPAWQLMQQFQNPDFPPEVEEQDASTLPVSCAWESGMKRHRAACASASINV

kctd9_human KCTD9 = target: T4, kctd9_human KCTD9 (UniProt Q7L273)
T4 sequence: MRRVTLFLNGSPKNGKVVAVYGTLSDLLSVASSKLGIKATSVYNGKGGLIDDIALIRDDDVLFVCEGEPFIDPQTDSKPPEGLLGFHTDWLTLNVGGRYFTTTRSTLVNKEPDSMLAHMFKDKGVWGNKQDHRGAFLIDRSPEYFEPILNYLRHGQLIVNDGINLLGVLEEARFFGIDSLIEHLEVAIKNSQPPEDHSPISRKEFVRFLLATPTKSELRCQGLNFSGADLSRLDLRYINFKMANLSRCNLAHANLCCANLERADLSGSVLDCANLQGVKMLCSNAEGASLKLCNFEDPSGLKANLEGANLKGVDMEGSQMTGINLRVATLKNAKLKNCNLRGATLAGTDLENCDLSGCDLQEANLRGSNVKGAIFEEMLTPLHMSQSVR

prps1_human PRPS1 = target: T5, prps1_human PRPS1 (UniProt P60891)
T5 sequence: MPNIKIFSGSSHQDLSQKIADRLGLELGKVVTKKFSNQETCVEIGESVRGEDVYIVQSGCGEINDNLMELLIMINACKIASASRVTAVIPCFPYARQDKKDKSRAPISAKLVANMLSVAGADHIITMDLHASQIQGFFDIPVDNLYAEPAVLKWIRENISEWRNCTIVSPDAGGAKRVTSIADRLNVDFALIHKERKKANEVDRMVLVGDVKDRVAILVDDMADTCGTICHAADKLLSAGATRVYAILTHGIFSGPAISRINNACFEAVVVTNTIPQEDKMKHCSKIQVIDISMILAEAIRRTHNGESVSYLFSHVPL

pde9a_human PDE9A = pde9a_human PDE9A (UniProt O76083)
pde9a_human PDE9A, sequence (O76083 whole entry): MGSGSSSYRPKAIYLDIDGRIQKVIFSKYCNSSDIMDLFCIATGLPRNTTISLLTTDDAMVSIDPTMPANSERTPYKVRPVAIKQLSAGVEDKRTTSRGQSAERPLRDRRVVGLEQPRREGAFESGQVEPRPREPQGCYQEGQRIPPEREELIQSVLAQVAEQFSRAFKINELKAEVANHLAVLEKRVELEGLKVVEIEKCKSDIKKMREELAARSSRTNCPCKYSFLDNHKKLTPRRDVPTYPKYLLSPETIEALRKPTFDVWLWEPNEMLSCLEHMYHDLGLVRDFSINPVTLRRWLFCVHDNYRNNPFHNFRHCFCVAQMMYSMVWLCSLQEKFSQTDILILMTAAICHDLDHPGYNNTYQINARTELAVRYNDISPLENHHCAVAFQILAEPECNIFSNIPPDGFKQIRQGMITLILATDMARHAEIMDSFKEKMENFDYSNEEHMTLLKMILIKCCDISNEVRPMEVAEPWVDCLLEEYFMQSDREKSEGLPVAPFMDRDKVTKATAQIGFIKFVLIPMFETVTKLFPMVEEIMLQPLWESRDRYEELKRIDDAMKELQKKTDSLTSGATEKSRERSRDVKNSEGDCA

zmat1_human ZMAT1 = zmat1_human ZMAT1 (UniProt Q5H9K5)
zmat1_human ZMAT1, sequence (Q5H9K5 whole entry): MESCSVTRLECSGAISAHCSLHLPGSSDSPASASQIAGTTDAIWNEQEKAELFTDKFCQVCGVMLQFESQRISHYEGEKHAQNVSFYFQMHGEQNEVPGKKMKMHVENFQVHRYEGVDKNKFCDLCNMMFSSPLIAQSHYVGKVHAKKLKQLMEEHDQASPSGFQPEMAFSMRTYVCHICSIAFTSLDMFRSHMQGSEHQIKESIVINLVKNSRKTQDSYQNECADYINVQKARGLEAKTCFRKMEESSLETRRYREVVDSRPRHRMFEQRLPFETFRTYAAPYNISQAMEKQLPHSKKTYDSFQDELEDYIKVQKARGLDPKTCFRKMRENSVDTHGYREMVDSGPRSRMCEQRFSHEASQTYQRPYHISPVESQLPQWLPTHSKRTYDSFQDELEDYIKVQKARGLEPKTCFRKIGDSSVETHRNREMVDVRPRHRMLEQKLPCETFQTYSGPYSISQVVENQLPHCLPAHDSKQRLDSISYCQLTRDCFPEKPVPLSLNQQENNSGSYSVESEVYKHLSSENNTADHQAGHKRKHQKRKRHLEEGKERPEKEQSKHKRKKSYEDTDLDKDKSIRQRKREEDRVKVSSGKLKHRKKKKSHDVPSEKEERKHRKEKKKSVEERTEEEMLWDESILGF

zbt14_human ZBTB14 = target: T6, zbt14_human ZBTB14 (UniProt O43829)
T6 sequence: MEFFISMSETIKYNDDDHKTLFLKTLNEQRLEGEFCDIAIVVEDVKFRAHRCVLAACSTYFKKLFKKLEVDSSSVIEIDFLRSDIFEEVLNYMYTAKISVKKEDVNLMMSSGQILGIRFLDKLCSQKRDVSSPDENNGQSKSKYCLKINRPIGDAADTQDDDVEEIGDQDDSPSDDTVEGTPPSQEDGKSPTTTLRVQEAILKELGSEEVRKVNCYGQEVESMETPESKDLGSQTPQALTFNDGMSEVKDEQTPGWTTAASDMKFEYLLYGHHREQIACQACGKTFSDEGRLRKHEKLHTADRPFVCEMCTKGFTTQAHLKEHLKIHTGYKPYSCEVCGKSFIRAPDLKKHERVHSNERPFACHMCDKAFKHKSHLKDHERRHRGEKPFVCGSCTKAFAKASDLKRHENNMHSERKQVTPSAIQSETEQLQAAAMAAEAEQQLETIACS

rpia_human RPIA, sequence (P49247 whole entry): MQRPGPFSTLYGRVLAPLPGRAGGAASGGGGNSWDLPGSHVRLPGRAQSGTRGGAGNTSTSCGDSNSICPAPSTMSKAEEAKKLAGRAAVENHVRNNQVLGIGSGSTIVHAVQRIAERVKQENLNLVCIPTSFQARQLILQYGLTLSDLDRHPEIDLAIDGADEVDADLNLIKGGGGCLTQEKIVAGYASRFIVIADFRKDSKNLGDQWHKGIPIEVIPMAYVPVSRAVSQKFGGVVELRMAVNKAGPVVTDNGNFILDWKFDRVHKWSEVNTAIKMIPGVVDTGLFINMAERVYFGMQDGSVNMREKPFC
reep6_human REEP6, sequence (Q96HR9 whole entry): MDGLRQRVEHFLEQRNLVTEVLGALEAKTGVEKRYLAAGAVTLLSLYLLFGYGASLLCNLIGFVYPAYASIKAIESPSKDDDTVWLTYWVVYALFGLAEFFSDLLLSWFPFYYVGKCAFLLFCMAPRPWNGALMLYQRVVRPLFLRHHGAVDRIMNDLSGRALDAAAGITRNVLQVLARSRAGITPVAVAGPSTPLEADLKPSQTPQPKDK

effect of a mutation on the interaction (rpia_human RPIA): with no effect
effect of a mutation on the interaction (dpyl2_human DPYSL2): with no effect
effect of a mutation on the interaction (reep6_human REEP6): with no effect
effect of a mutation on the interaction (ca094_human C1orf94): with no effect
effect of a mutation on the interaction (ei2ba_human EIF2B1): with no effect
effect of a mutation on the interaction (dcor_human ODC1): disrupting interaction strength
effect of a mutation on the interaction (kctd9_human KCTD9): with no effect
effect of a mutation on the interaction (prps1_human PRPS1): with no effect
effect of a mutation on the interaction (pde9a_human PDE9A): with no effect
effect of a mutation on the interaction (zmat1_human ZMAT1): with no effect
effect of a mutation on the interaction (zbt14_human ZBTB14): with no effect
Substance: Golgi reassembly-stacking protein 2 (Homo sapiens) (from UniProt Q9H8Y8) L320R

Source: IntAct's records for PubMed 29892012
